From patent CN113754774A (SUNSHINE GUOJIAN PHARMACEUTICAL SHANGHAI CO LTD, dated 2021)

Assays:
野生型EGFR on A431 cells = 野生型EGFR on A431 cells (human, UniProt P00533 25-1210); experiment: cell-based or functional assay
PD-L1-His [1] = biological target: T1, PD-L1-His (UniProt Q9NZQ7 19-238, limits assumed); experiment: ELISA, PD-L1-His coated (Fig. 3A)
T1 construct: extracellular domain; Made in-house in HEK293F; used as ELISA coat and as Biacore analyte; not shown: C-terminal polyhistidine tag

EGFR-ECD-hFc [2] = biological target: T2, EGFR-ECD-hFc (human, UniProt P00533 25-645); experiment: ELISA, EGFR-ECD-hFc coated (Fig. 3B)
T2 construct: extracellular domain; Made in-house in HEK293F; ELISA coating antigen; not shown: Fc segment of human IgG1

EGFR-ECD-hFc [3] = biological target: T2, EGFR-ECD-hFc; experiment: ELISA, EGFR-ECD-hFc coated, HRP anti-human Fab detection (Fig. 2B)
PD-L1-His [4] = biological target: T1, PD-L1-His; experiment: ELISA, PD-L1-His coated at 10 ng/well

抑制A431细胞的增殖 IC50 (CCK-8) (野生型EGFR on A431 cells) [nM] | EC50 (PD-L1-His [1]) [nM] | EC50 (EGFR-ECD-hFc [2]) [nM] | EC50 (EGFR-ECD-hFc [3]) [nM] | binding result (PD-L1-His [4]) | Binder
0.709 | 0.2 | 0.239 | – | – | PDL1-Fab-Cetuximab-IgG1 (bispecific antibody, Tetravalent bispecific antibody against PD-L1 and EGFR; two long polypeptide chains and four common light chains) heavy: not shown light: EIVLTQSPDFLSVTPKEKVTITCRASQSIGTTIHWYQQKPDQSPKLLIKYASQSFSGVPSRFSGSGSGTDFTLTINSVEAEDAATYYCQQSNSWPLTFGAGTKLEIKRTVAAPSVFIFPPSDEQLKSGTASVVCLLNNFYPREAKVQWKVDNALQSGNSQESVTEQDSKDSTYSLSSTLTLSKADYEKHKVYACEVTHQGLSSPVTKSFNRGEC
0.96 | 0.336 | 0.185 | – | – | Cetuximab-Fab-PDL1-IgG1 (bispecific antibody, Tetravalent bispecific antibody against PD-L1 and EGFR; two long polypeptide chains and four common light chains) heavy: not shown light: EIVLTQSPDFLSVTPKEKVTITCRASQSIGTTIHWYQQKPDQSPKLLIKYASQSFSGVPSRFSGSGSGTDFTLTINSVEAEDAATYYCQQSNSWPLTFGAGTKLEIKRTVAAPSVFIFPPSDEQLKSGTASVVCLLNNFYPREAKVQWKVDNALQSGNSQESVTEQDSKDSTYSLSSTLTLSKADYEKHKVYACEVTHQGLSSPVTKSFNRGEC
0.563 | – | 0.225 | 0.248 | no binding | Cetuximab-HC+Anti-PDL1-LC (antibody, V domains shown, Hybrid antibody: heavy chain of Cetuximab with the light chain of Anti-PDL1 (the common light chain)) VH: not shown VL: EIVLTQSPDFLSVTPKEKVTITCRASQSIGTTIHWYQQKPDQSPKLLIKYASQSFSGVPSRFSGSGSGTDFTLTINSVEAEDAATYYCQQSNSWPLTFGAGTKLEIKR
